Data as given in patent US9539315B2, “Methods, agents and peptides for inhibiting matrix metalloproteinase-2 signaling” (New York University, priority 2011, dated 2017).
Entries after “also recorded” stand apart in the source; their conditions may differ.

Tests used:
NF-κB pathway = test: p50 nuclear translocation / NF-κB activation in DCs (ELISA of cytosolic and nuclear fractions); assay type: cell-based, human
Description: A) DCs were exposed to MMP-2 […] or zymosan […], a known activator of NF-κB that acts via TLR2, for the indicated time. Cytosolic and nuclear fractions were isolated and p50 contents were measured by ELISA. […] C) OX40L over-expression on DCs induced by MMP-2 is inhibited by an inhibitor of NEMO, the NEMO binding domain (NBD) peptide, but not by the corresponding negative control, a NBD mutant.
PBMCs were purified from healthy-(HD) or cord blood- (CB) donors and plated at 40×10^6 cells/10 mL/dish in complete IMDM with 5% PHS. Cells were allowed to adhere for 2 h at 37° C. Non-adherent cells were removed. The monocyte-enriched fraction was supplemented with 100 UI/mL rhGMCSF and 300 UI/mL rhIL-4 (R&D Systems) on days 0, 2 and 4. Immature DCs were harvested on day 5 and matured using poly(I:C) at 5 μg/mL/10^6 DCs (Amersham). Secretion of IL-12p70, TNFα, IL-1β, IL-6, IL-8 and IL-10 was assessed on both immature and mature DCs using the Human Inflammatory Cytokine Cytometric Bead Array (BD Pharmingen).
Activation of T cell clones (10,000 cells/100 μL/well), polyclonal T cell populations (100,000 cells/100 μL/well), and DCs (50,000 cells/100 μL/well) can be determined by ELISA. IFNγ (BioSource), TNFα (BioSource), IL-4 (BioSource), IFNβ (VeriKine; PBL interferon source) and MCP-3 (DuoSet; R&D Systems) contents in supernatants were measured according to the manufacturer's instructions. p50 was measured in cytosolic and nuclear fractions (fractions separated using the nuclear separation kit from Active motif) by ELISA (Active motif).

TLR2/MyD88 complex = target: T1, TLR2/MyD88 complex (Homo sapiens, UniProt O60603); test: Co-immunoprecipitation of MMP-2 and TLR2 from moDCs or TLR2-transfected HEK cells; assay type: binding; settings: n=3
T1 construct: endogenous in cells; host or cells: human monocyte-derived dendritic cells (moDCs); alternatively TLR2-transfected HEK cells
T1 sequence (O60603 21-784): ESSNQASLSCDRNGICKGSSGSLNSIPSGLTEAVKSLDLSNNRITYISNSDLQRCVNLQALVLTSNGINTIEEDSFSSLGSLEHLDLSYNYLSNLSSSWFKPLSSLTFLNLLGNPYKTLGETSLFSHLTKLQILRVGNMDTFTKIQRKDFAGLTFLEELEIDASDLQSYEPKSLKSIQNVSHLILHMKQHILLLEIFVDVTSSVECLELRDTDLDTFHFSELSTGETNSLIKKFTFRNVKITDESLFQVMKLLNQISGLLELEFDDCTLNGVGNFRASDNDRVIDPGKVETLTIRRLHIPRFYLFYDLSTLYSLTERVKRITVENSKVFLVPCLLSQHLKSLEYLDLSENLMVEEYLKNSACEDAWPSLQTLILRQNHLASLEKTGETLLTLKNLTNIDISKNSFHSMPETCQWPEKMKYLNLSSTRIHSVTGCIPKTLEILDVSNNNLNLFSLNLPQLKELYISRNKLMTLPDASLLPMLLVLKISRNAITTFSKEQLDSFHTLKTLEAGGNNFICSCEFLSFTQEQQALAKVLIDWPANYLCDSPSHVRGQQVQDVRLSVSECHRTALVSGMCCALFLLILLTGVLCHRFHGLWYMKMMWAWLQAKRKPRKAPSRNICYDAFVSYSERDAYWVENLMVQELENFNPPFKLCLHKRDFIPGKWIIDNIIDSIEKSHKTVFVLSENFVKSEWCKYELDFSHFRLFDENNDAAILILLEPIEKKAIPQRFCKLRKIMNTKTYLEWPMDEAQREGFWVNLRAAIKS
T1 sequence (Q99836 whole entry partner): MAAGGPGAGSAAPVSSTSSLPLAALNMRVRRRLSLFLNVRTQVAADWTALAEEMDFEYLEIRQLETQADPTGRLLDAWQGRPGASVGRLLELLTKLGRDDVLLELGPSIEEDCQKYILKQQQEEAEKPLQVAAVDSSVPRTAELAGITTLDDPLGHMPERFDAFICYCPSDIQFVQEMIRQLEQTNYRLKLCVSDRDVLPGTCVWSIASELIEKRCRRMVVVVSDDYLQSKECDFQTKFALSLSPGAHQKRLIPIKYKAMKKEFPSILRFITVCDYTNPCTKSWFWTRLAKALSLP
Description: 10^6 moDCs/lane or TLR2-transfected HEK cells were incubated for 20 min with or without 5 μg/ml MMP-2 or MMP-9 before being lysed. TLR2 A) and MMP-2 B) were immunoprecipitated using specific antibodies and protein G-agarose. Western blots for MMP-2 (≈70 kD), TLR2 (≈85 kD) and MyD88 (≈35 kD) were then performed. C and D) depict band intensities (mean of 3 independent experiments±s.d.), which are represented as a percentage of the band intensity corresponding to untreated cells. Two-tailed Student's t-tests were used to compare MMP-2- to MMP-9-treated cells. p values≦0.05 (*) were considered statistically significant.
To assess whether MMP-2 directly interacts with TLR2, moDCs and TLR2-transfected HEK cells were utlized. […] Similarly, TLR2 and MyD88 immunoprecipitated (n=3; p<0.05 compared to MMP-9-treated cells) with MMP-2 when moDCs were pre-treated with MMP-2 (FIG. 8B,D).

B1: matrix metalloproteinase-2 (protein)
chain: YNFFPRKPKWDKNQITYRIIGYTPDLDPETVDDAFARAFQVWSDVTPLRFSRIHDGEADIMINFGRWEHGDGYPFDGKDGLLAHAFAPGTGVGGDSHFDDDELWTLGEGQVVRVKYGNADGEYCKFPFLFNGKEYNSCTDTGRSDGFLWCSTTYNFEKDGKYGFCPHEALFTMGGNAEGQPCKFPFRFQGTSYDSCTTEGRTDGYRWCGTTEDYDRDKKYGFCPETAMSTVGGNSEGAPCVFPFTFLGNKYESCTSAGRSDGKMWCATTANYDDDRKWGFCPDQGYSLFLVAAHEFGHAMGLEHSQDPGALMAPIYTYTKNFRLSQDDIKGIQELYGASPDIDLGTGPTPTLGPVTPEICKQDIVFDGIAQIRGEIFFFKDRFIWRTVTPRDKPMGPLLVATFWPELPEKIDAVYEAPQEEKAVFFAGNEYWIYSASTLERGYPKPLTSLGLPPDVQRVDAAFNWSKNKKTYIFAGDKFWRYNEVKKKMDPGFPKLIADAWNAIPDNLDAVVDLQGGGHSYFFKGAYYLKLENQSLKSVKFGSIKSDWLGC
With B1 the “p50 translocation in the nucleus” value (NF-κB pathway; DCs exposed to MMP-2 (5 μm/ml) or zymosan (10 μm/ml), p50 by ELISA) was “triggers p50 translocation in the nucleus; also recorded: induce p50 translocation in the nucleus after 30 min”, the “NF-κB activation in DCs” value (NF-κB pathway; active vs heat-inactivated MMP-2) was “NF-κB activation (FIGS. 2A, 2B and 3) at similar levels” and the “MMP-2 and MyD88 immunoprecipitated with TLR2” value (TLR2/MyD88 complex; cells pre-treated 20 min with 5 μg/ml MMP-2 (active or inactive) or MMP-9) was “immunoprecipitated”. The “TLR2 and MyD88 immunoprecipitated with MMP-2” value (TLR2/MyD88 complex; moDCs pre-treated with MMP-2) was “immunoprecipitated”.
